Source: patent CN114573710A

How the values were obtained:
[1] = target: CD47 on lymphoma cell lines Raji, Daudi and Romas (UniProt Q08722); assay: flow cytometry, Daudi cells incubated with CD19-s47-CART supernatant, detected with anti-HA-APC
[2] = target: CD47 on lymphoma cell lines Raji, Daudi and Romas (UniProt Q08722); assay: flow cytometry, Romas cells incubated with CD19-s47-CART supernatant, detected with anti-HA-APC
[3] = target: CD47 on lymphoma cell lines Raji, Daudi and Romas (UniProt Q08722); assay: flow cytometry, Raji cells incubated with CD19-s47-CART supernatant, detected with anti-HA-APC

Chain of UniProt Q08722 (Q08722 19-323 limits assumed): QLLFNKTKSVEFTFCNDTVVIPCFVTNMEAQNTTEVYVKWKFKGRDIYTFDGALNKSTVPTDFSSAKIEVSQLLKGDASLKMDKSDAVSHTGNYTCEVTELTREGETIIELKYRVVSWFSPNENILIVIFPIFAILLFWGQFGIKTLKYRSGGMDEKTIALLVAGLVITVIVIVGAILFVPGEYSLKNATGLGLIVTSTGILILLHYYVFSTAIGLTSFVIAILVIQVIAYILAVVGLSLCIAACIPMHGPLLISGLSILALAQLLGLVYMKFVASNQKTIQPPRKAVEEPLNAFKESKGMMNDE

结合率 [1]: 100 % | 结合率 [2]: 100 % | 结合率 [3]: 100 %
B1: 外泌蛋白s47 (抗CD47单链抗体, CD47 ScFv, 末尾连接HA标签) (scFv)
scFv: DVVMTQSPLSLPVTPGEPASISCRSSQSIVYSNGNTYLGWYLQKPGQSPKLLIYKVSNRFSGVPDRFSGSGSGTDFTLKISRVEAEDVGVYHCFQGSHVPYTFGGGTKVEIKGGGGSGGGGSGGGGSQVQLVQSGAEVKKPGASVKVSCKASGYTFTNYNMHWVRQAPGQGLEWIGTIYPGNDDTSYNQKFKDKATLTADKSTSTAYMELSSLRSEDTAVYYCARGGYRAMDYWGQGTLVTVSSYPYDVPDYA
